According to patent publication US5705608, “Human IL-2 receptor γ chain molecule” (Ajinomoto Co., Inc., dated 1998):
One block for each binder: values may come before it.

Tests used:
[1] = biological target: T1, IL-2 labelled with 125I (human, UniProt P60568, 125I label by the chloramine-T method); assay: 125I-IL-2 binding to Lβγ-9 cells at 4° C., Scatchard plot
Procedure: (§1) The radioactivity of ^125I-IL-2 bound or not bound to the cells was determined. The value for the background or the binding radioactivity in the case of addition of unlabelled IL-2 was subtracted from each of the measurements to calculate the binding amounts, the binding ability and the binding affinity of IL-2 to the receptor as determined by a Scatchard plot.

[2] = biological target: T1, IL-2 labelled with 125I; assay: 125I-IL-2 binding to Lαβγ-4 cells at 4° C., Scatchard plot, biphasic, low affinity component
Procedure: as §1

[3] = biological target: T1, IL-2 labelled with 125I; assay: 125I-IL-2 binding to Lαβγ-4 cells at 4° C., Scatchard plot, biphasic, high affinity component
Procedure: as §1

Kd [1]: 4.6 nM
B1: IL-2 receptor β and γ chains on Lβγ-9 cells (L929 cells with IL-2 receptor β and γ chain expression) (receptor)
chain 1: AVNGTSQFTCFYNSRANISCVWSQDGALQDTSCQVHAWPDRRRWNQTCELLPVSQASWACNLILGAPDSQKLTTVDIVTLRVLCREGVRWRVMAIQDFKPFENLRLMAPISLQVVHVETHRCNISWEISQASHYFERHLEFEARTLSPGHTWEEAPLLTLKQKQEWICLETLTPDTQYEFQVRVKPLQGEFTTWSPWSQPLAFRTKPAALGKDTIPWLGHLLVGLSGAFGFIILVYLLINCRNTGPWLKKVLKCNTPDPSKFFSQLSSEHGGDVQKWLSSPFPSSSFSPGGLAPEISPLEVLERDKVTQLLLQQDKVPEPASLSSNHSLTSCFTNQGYFFFHLPDALEIEACQVYFTYDPYSEEDPDEGVAGAPTGSSPQPLQPLSGEDDAYCTFPSRDDLLLFSPSLLGGPSPPSTAPGGSGAGEERMPPSLQERVPRDWDPQPLGPPTPGVPDLVDFQPPPELVLREAGEEVPDAGPREGVSFPWSRPPGQGEFRALNARLPLNTDAYLSLQELQGQDPTHLV
chain 2: LNTTILTPNGNEDTTADFFLTTMPTDSLSVSTLPLPEVQCFVFNVEYMNCTWNSSSEPQPTNLTLHYWYKNSDNDKVQKCSHYLFSEEITSGCQLQKKEIHLYQTFVVQLQDPREPRRQATQMLKLQNLVIPWAPENLTLHKLSESQLELNWNNRFLNHCLEHLVQYRTDWDHSWTEQSVDYRHKFSLPSVDGQKRYTFRVRSRFNPLCGSAQHWSEWSHPIHWGSNTSKENPFLFALEAVVISVGSMGLIISLLCVYFWLERTMPRIPTLKNLEDLVTEYHGNFSAWSGVSKGLAESLQPDYSERLCLVSEIPPKGGALGEGPGASPCNQHSPYWAPPCYTLKPET

Kd [2]: 2.4 nM
Kd [3]: 0.077 nM
B2: IL-2 receptor α, β and γ chains on Lαβγ-4 cells (L929 with IL-2 receptor α, β and γ chain expression) (receptor)
chain 1: ELCDDDPPEIPHATFKAMAYKEGTMLNCECKRGFRRIKSGSLYMLCTGNSSHSSWDNQCQCTSSATRNTTKQVTPQPEEQKERKTTEMQSPMQPVDQASLPGHCREPPPWENEATERIYHFVVGQMVYYQCVQGYRALHRGPAESVCKMTHGKTRWTQPQLICTGEMETSQFPGEEKPQASPEGRPESETSCLVTTTDFQIQTEMAATMETSIFTTEYQVAVAGCVFLLISVLLLSGLTWQRRQRKSRRTI
chain 2: B1 chain 1
chain 3: B1 chain 2
